Here are results for two compounds from patent US7598033B2, “Method and devices for running reactions on a target plate for MALDI mass spectrometry” (University of Pennsylvania, priority 2003, dated 2009).

A short description of data set [1]: Fluorogenic substrate microarray, aerosol deposition of enzyme: boc-VPR-MCA. It is filed as biochemical. The conditions noted are these: after spray application. As for the experimental part:
Well characterized for over 30 years, serine proteases of the coagulation pathway in plasma were selected as a system in which to monitor the delivery of complex enzyme fluids to the microassay. Fluorogenic substrates in DMSO/glycerol were assayed to a glass slide.
After spray application, thrombin caused a 65-fold increase in fluorescence activity after conversion of the boc-VPR-MCA substrate. […] Aerosol deposition of pure tPA (10 μM) to a sensing array caused significant cleavage of the tPA, thrombin and Xa substrates, resulting in fluorescence that was 18- to 20-fold above background.

A further data set concerns the target thrombin (Homo sapiens, UniProt P00734). The experiment in a line: Nanoliter thrombin/fibrinogen reaction on MALDI target, MS detection of fibrinopeptides A and B. The settings on record: benzamidine in the nanoliter reaction, FIG. 26B. It is filed as biochemical.

Procedure for thrombin: The glycerol in the reaction was then removed, and MALDI matrix was deposited to result in a thin film suitable (FIG. 26A) for MS detection of FPA/FPB.
A 8×12 array of reactions were printed using an OmniGrid microarrayer containing varying concentrations of fibrinogen and a fibrinopeptide MS satandard. Certain reactions contained 1 mM benzamidine. The array was activated with thrombin and incubated under humidity (top row, A), the glycerol was removed (middle row, A), and then coated with MALDI matrix (bottom row, A). […] Conditions of the MALDI MS were: Voyager-DE PRO (sinapinic acid matrix), Glu1-Fibrinopeptide B (1 ug/ml) control, Reflector Mode, Positive Polarity, 1000-2000 Da Acquisition Range, 20000 V Accelerating voltage, 2033 laser intensity (20.0 Hz; 100/spectrum), Extraction delay time: 150 nsec, Grid voltage: 75%, Guide wire voltage: 0.002%.

With thrombin, in data set [1], the “increase in fluorescence activity after conversion of the boc-VPR-MCA substrate” value turned out to be 65 fold.

`N=C(N)c1ccccc1` [Benzamidine]: at thrombin, the “inhibition of thrombin release of fibrinopeptides A and B from fibrinogen” value is listed as “completely inhibited”.
